B1: 894_0375 (peptide)
peptide: {CH2CO}-AV[NMePhe(3-Cl)]VWN[3Pal(6-NH2)][3Pal]IIR[E(PEG8Me)][4Pal]YC-NH2
modifications: thioether N-15; not fully specified (residue 14); also: linker PEG4c, place not given here
B2: 894_0373 (peptide)
peptide: {CH2CO}-AV[NMePhe(3-Cl)]VWNY[F4aao]IIR[E(PEG8Me)][4Pal]YC-NH2
modifications: thioether N-15; not fully specified (residue 14); also: linker PEG4c, place not given here
B3: 894_0372 (peptide)
peptide: {CH2CO}-AV[NMePhe(3-Cl)]VWNY[F4aao]IIR[E(PEG8Me)][Phe(3-COOH)]YC-NH2
modifications: thioether N-15; not fully specified (residue 14); also: linker PEG4c, place not given here
B4: 894_0374 (peptide)
peptide: {CH2CO}-AV[NMePhe(3-Cl)]VWN[3Pal(6-NH2)][3Pal]IIR[E(PEG8Me)][Phe(3-COOH)]YC-NH2
modifications: thioether N-15; not fully specified (residue 14); also: linker PEG4c, place not given here

Drawing on patent publication US20260116920A1 (PEPTIDREAM, published 2026), this text covers KD for 29 molecules.

For orientation: KD means the constant that tells how readily two partners part at equilibrium. Lower therefore signals tighter binding.

Starred links: 1 amine or outer side, 2 acyl side, 3 side chain; linkers in the order of their positions; H or OH if unused. Positions of bridges follow the written chain, without caps; N, C: chain ends. Non-standard residues stand in square brackets, D forms with d. Primed or numbered codes have the meaning given here. No end group written: not given here. *: point of attachment. E(PEG8Me) = (S)-30-amino-27-oxo-2,5,8,11,14,17,20,23-octaoxa-26-azahentriacontane-31-oic acid, COCCOCCOCCOCCOCCOCCOCCOCCNC(=O)CC[C@H](N[*:1])C(=O)[*:2]; E(PEG4Me) = (S)-18-amino-15-oxo-2,5,8,11-tetraoxa-14-azanonadecane-19-oic acid, COCCOCCOCCOCCNC(=O)CC[C@H](N[*:1])C(=O)[*:2]; Phe(4-OMe)(3) = (S)-2-amino-3-(4-methoxyphenyl)propanoic acid (source code F4OMe), COc1ccc(C[C@H](N[*:1])C(=O)[*:2])cc1; F4aao = (S)-2-amino-3-(4-(carboxymethoxy)phenyl)propanoic acid, O=C([C@H](Cc1ccc(OCC(=O)[*:3])cc1)N[*:1])[*:2]; Phe(4-OMe) = F4OMe = (S)-2-amino-3-(4-methoxyphenyl)propanoic acid, COc1ccc(C[C@H](N[*:1])C(=O)[*:2])cc1; E(NHdPEG1Me) = N5-(1,3-dimethoxypropan-2-yl)-L-glutamine, COCC(COC)NC(=O)CC[C@H](N[*:1])C(=O)[*:2]; Trp(1-CH2CO) = O=C([C@H](Cc1cn(CC(=O)[*:3])c2ccccc12)N[*:1])[*:2]; Nle(6-morpholino) = N[C@@H](CCCCN1CCOCC1)C(=O)O; Phe(3-COOH) = N[C@@H](Cc1cccc(C(=O)O)c1)C(=O)O; Trp(7-aza) = N[C@@H](Cc1c[nH]c2ncccc12)C(=O)O; NH(CH2CH2O)8Me = COCCOCCOCCOCCOCCOCCOCCOCCN*; NMePhe(3-Cl) = CN[C@@H](Cc1cccc(Cl)c1)C(=O)O; 3Pal(6-NH2) = Nc1ccc(C[C@H](N)C(=O)O)cn1; NMeY = CN[C@@H](Cc1ccc(O)cc1)C(=O)O; NMeF = CN[C@@H](Cc1ccccc1)C(=O)O; 3Pal = N[C@@H](Cc1cccnc1)C(=O)O; 4Pal = N[C@@H](Cc1ccncc1)C(=O)O

T1 sequence (P02786 89-760 limits assumed): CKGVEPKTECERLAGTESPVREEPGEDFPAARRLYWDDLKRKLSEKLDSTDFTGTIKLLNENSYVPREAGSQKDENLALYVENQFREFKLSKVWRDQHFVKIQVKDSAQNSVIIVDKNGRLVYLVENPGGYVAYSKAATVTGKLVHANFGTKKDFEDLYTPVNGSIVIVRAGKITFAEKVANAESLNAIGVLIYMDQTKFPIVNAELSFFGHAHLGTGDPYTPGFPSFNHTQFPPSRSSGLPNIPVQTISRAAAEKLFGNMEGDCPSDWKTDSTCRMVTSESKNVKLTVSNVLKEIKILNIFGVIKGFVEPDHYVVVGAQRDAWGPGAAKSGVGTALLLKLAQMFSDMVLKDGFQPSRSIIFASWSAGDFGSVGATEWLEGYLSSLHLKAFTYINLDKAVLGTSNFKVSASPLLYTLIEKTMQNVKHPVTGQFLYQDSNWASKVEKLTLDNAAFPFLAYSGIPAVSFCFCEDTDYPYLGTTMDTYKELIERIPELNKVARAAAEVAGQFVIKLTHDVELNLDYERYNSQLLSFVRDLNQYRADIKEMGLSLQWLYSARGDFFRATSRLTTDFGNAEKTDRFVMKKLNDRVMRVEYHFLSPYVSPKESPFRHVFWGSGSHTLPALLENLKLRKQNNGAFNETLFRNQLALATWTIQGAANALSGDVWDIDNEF

This experiment has as its target T1, human transferrin receptor (hTfR) (human, UniProt P02786 89-760).
T1 construct: used as 0.5 uM hTfR dimer solution, immobilised on an NTA sensor chip (Ni capture plus EDC/NHS coupling); also called human TfR; TfR1
Nature of the experiment: SPR; B = KD 1-100 nM. The procedure, abridged:
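Recombinant hTfR dimer immobilised on Ni-NTA chip with EDC/NHS coupling; running buffer 10 mM HEPES pH 8.0, 150 mM NaCl, 0.05% Tween 20, 0.1% BSA, 1.0% DMSO. Peptides injected at 5–100 nM in single-cycle kinetics; KD from least-squares sensorgram fitting.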
In general terms: In SPR one partner is held on a chip, and binding of the other changes the refractive index at the surface.
Molecule Ac-AV[NMePhe(3-Cl)]V[Trp(1-CH2CO)]NY[Phe(4-OMe)(3)]IIR[E(PEG8Me)][Phe(3-COOH)][NMeY]C (thioether (positions not given here); not fully specified (C-terminus, bridges)) [894_0344] had a KD of 1 to 100 nM.
Molecule {CH2CO}-AV[NMePhe(3-Cl)]VWNY[Phe(4-OMe)]IIRE(NH(CH2CH2O)8Me)[Phe(3-COOH)][NMeY]C-NH2 (thioether N-15; also: linker PEG4c) [894_0365] yielded a dissociation constant KD of 1 to 100 nM.
The same measure for {CH2CO}-AV[NMePhe(3-Cl)]VWNY[F4aao]IIRE(NH(CH2CH2O)8Me)F[NMeY]C (thioether N-15; not fully specified (C-terminus)) [894_0362]: 1 to 100 nM; for {CH2CO}-AV[NMePhe(3-Cl)]V[Trp(1-CH2CO)]NY[F4aao]IIQ[Nle(6-morpholino)][4Pal][NMeY]C-NH2 (thioether N-15; also: linker PEG4c, attachment not given here) [894_0420]: 1 to 100 nM; for Ac-AV[NMePhe(3-Cl)]V[Trp(1-CH2CO)]NY[F4aao]IIRE(NH(CH2CH2O)8Me)[4Pal][NMeY]C (thioether (positions not given here); not fully specified (C-terminus, bridges)) [894_0350]: 1 to 100 nM.
The figure for B1 is 1 to 100 nM.
The same measure for {CH2CO}-AV[NMePhe(3-Cl)]VWNY[3Pal]IIRE(NH(CH2CH2O)8Me)[4Pal][NMeY]C-NH2 (thioether N-15; also: linker PEG4c) [894_0371]: 1 to 100 nM; for {CH2CO}-AV[NMePhe(3-Cl)]V[Trp(1-CH2CO)]NY[F4aao]IIQR[4Pal][NMeY]C-NH2 (thioether N-15; also: linker PEG4c, place not given here) [894_0419]: 1 to 100 nM.
{CH2CO}-AV[NMeF]VWNYYIIRRY[NMeY]C-NH2 (thioether N-15; also: linker G-de-de-de-S-S-C(AcNMe), place not given here) [894_0393]: the KD was in the range of 1 to 100 nM.
The figure for B2 is 1 to 100 nM; for {CH2CO}-AV[NMePhe(3-Cl)]VWN[3Pal(6-NH2)][F4aao]IIR[E(PEG8Me)][4Pal][NMeY]C-NH2 (thioether N-15; also: linker PEG4c, place not given here) [894_0377] it is 1 to 100 nM; for {CH2CO}-AV[NMePhe(3-Cl)]V[Trp(1-CH2CO)]NY[3Pal]IIRE(NH(CH2CH2O)8Me)[4Pal][NMeY]C-NH2 (thioether N-15; also: linker PEG4c) [894_0351] it is 1 to 100 nM.
The same measure for {CH2CO}-AV[NMePhe(3-Cl)]V[Trp(1-CH2CO)]NY[F4aao]II[E(NHdPEG1Me)]RF[NMeY]C-NH2 (thioether N-15; also: linker PEG4c, place not given here) [894_0396]: 1 to 100 nM; for {CH2CO}-AV[NMePhe(3-Cl)]V[Trp(1-CH2CO)]NY[F4aao]II[E(PEG4Me)]RF[NMeY]C-NH2 (thioether N-15; also: linker PEG4c, place not given here) [894_0395]: 1 to 100 nM.
With Ac-AV[NMePhe(3-Cl)]V[Trp(1-CH2CO)]N[3Pal(6-NH2)][3Pal]IIRR[Phe(3-COOH)][NMeY]C (thioether (positions not given here); not fully specified (C-terminus, bridges)) [894_0347], the KD fell in the range of 1 to 100 nM.
{CH2CO}-AV[NMePhe(3-Cl)]V[Trp(1-CH2CO)]NY[F4aao]IIQR[Phe(3-COOH)][NMeY]C-NH2 (thioether N-15; also: linker PEG4c, attachment not given here) [894_0421]: the KD fell in the range of 1 to 100 nM.
The same measure for Ac-AV[NMePhe(3-Cl)]V[Trp(1-CH2CO)]NY[Phe(4-OMe)(3)]IIR[E(PEG8Me)][4Pal][NMeY]C (thioether (positions not given here); not fully specified (C-terminus, bridges)) [894_0345]: 1 to 100 nM.
The molecule {CH2CO}-AV[NMePhe(3-Cl)]V[Trp(7-aza)]NY[F4aao]IIQR[4Pal][NMeY]C-NH2 (thioether N-15; also: linker PEG4c, attachment not given here) [894_0424] displayed a KD of 1 to 100 nM.
{CH2CO}-AV[NMePhe(3-Cl)]VWNY[3Pal]IIRE(NH(CH2CH2O)8Me)[Phe(3-COOH)][NMeY]C-NH2 (thioether N-15; also: linker PEG4c) [894_0370] showed a KD of 1 to 100 nM.
The same measure for {CH2CO}-AV[NMePhe(3-Cl)]V[Trp(7-aza)]NY[F4aao]IIQ[Nle(6-morpholino)][4Pal][NMeY]C-NH2 (thioether N-15; also: linker PEG4c, attachment not given here) [894_0425]: 1 to 100 nM.
The same measure for {CH2CO}-AV[NMeF]VWNYYIIRRY[NMeY]C-NH2 (thioether N-15; also: linker G-de-de-de-de-de-C(AcNMe), place not given here) [894_0394]: 1 to 100 nM; for {CH2CO}-AV[NMePhe(3-Cl)]V[Trp(1-CH2CO)]NY[3Pal]IIRE(NH(CH2CH2O)8Me)[Phe(3-COOH)][NMeY]C-NH2 (thioether N-15; also: linker PEG4c) [894_0352]: 1 to 100 nM; for Ac-AV[NMePhe(3-Cl)]V[Trp(1-CH2CO)]N[3Pal(6-NH2)][F4aao]IIRR[4Pal][NMeY]C (thioether (positions not given here); not fully specified (C-terminus, bridges)) [894_0348]: 1 to 100 nM.
The same measure for B3: 1 to 100 nM.
Turning to {CH2CO}-AV[NMePhe(3-Cl)]VWN[3Pal(6-NH2)][F4aao]IIRR[Phe(3-COOH)][NMeY]C (thioether N-15; not fully specified (C-terminus)) [894_0368], the KD was 1 to 100 nM.
The figure for Ac-AV[NMePhe(3-Cl)]V[Trp(1-CH2CO)]N[3Pal(6-NH2)][F4aao]IIRR[Phe(3-COOH)][NMeY]C (thioether (positions not given here); not fully specified (C-terminus, bridges)) [894_0349] is 1 to 100 nM; for {CH2CO}-AV[NMePhe(3-Cl)]VWN[3Pal(6-NH2)][F4aao]IIRR[4Pal][NMeY]C-NH2 (thioether N-15; also: linker PEG4c) [894_0369] it is 1 to 100 nM; for B4 it is 1 to 100 nM.
The same measure for {CH2CO}-AV[NMePhe(3-Cl)]VWN[3Pal(6-NH2)][F4aao]IIR[E(PEG8Me)][Phe(3-COOH)][NMeY]C-NH2 (thioether N-15; also: linker PEG4c, place not given here) [894_0376]: 1 to 100 nM.
